Laboratory results: patent US20090111753A1, “Nogo-A Polypeptide Fragments, Variant Nogo Receptor-1 Polypeptides, and Uses Thereof” (Yale University, priority 2004, published 2009)

T1: NgR (Homo sapiens, UniProt Q9BZR6)
T1 construct: expressed in transfected cells; host or cells: COS-7
T1 sequence (Q9BZR6 27-447): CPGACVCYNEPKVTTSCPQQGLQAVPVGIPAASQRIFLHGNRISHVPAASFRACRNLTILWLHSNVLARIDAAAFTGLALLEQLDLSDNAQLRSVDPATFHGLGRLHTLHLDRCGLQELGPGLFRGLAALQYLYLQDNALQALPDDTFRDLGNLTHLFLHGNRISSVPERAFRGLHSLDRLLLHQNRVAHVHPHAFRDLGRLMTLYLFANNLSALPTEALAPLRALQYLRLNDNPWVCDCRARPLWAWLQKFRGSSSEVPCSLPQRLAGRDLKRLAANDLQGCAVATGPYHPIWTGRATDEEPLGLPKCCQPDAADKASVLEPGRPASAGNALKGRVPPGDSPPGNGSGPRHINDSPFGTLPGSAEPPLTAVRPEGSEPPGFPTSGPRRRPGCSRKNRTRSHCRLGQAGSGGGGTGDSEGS

B1: B4: fusion protein of GST and B4 fragment (carboxyl terminal 150 aa) of Amino-Nogo (protein)
chain: SKTDSFSKLAREYTDLEVSHKSEIANAPDGAGSLPCTELPHDLSLKNIQPKVEEKISFSDDFSKNGSATSKVLLLPPDVSALATQAEIESIVKPKVLVKEAEKKLPSDTEKEDRSPSAIFSAELSKTSVVDLLYWRDIKKTG
modifications: left off: a dimerising Fc or GST
notes: fusion protein of GST and B4 fragment (carboxyl terminal 150 aa) of Amino-Nogo
B2: B4C: fusion protein of GST and B4C fragment (carboxyl terminal 75 aa) of Amino-Nogo (protein)
chain: LLPPDVSALATQAEIESIVKPKVLVKEAEKKLPSDTEKEDRSPSAIFSAELSKTSVVDLLYWRDIKKTG
modifications: left off: large carriers
notes: fusion protein of GST and B4C fragment (carboxyl terminal 75 aa) of Amino-Nogo
B3: a.a. 950-1018 (AmNg B4C): AP fusion protein of Amino-Nogo fragment B4C, aa 950-1018 (protein)
chain: B2 chain
modifications: left off: large carriers

How the values were obtained:
COS-7 cells = assay: Fibroblast spreading assay on dried GST fusion protein; type: cell-based; conditions: GST fusion protein presented as dried substrate
Experimental: FIG. 2A. Effects of Amino-Nogo fragments on fibroblast spreading and neurite outgrowth. Different effects of Amino-Nogo fragments on fibroblast spreading. COS-7 cells were allowed to attach and spread on slides with spots coated with 50 ng of dried GST fusion protein as indicated and stained for F-actin. GST-A: fusion protein of GST and A fragment (FIG. 1) of Amino-Nogo. GST-A, GST-B, GST-Δ20, GST-B4 and GST-B4C: fusion protein of GST and A, B, Δ20, B4 or B4C fragment (FIG. 1) of Amino-Nogo, respectively.
FIG. 2B. COS-7 cell area for experiments as in (A) was measured and plotted.
FIG. 2C. COS-7 cells were allowed to attach and spread on 96 well dishes coated with dried GST fusion proteins as indicated. Number of attached cells were counted and plotted as a function of the amount of various proteins dried per well in a 96 well dish.
It has been recognized that the Amino-Nogo-A protein inhibits non-neuronal cell spreading and axonal outgrowth when the protein is substrate bound (Chen, M. S., et al., Nature 403:434-439 (2000); Fournier, A. E., et al., Nature 409:341-346 (2001)). […] The later domain has been termed Δ20. To determine whether the NgR-interacting aa of Amino-Nogo-A described in Example 1 regulate cell spreading and axonal outgrowth, various fragments were expressed as GST fusion proteins and purified from E. coli. To generate GST fusion proteins, amino Nogo fragments were cloned in pGEX2T (Amersham Pharmacia). Native and soluble GST fusion proteins were expressed and purified as described (GrandPre, T., et al., Nature 403:439-444 (2000)). COS-7 binding assays were done as described (Fournier, A. E., et al., Nature 409:341-346 (2001)). Bound AP to COS-7 cells was measured using NIH image software. Fibroblast spreading and cDRG outgrowth assay were done as described (Fournier, A. E., et al., Nature 409:341-346 (2001)) with some modifications. Briefly, 50 μl of purified GST fusion protein or peptides diluted in PBS was pipetted into polylysine precoated 96 well plates (Becton Dickson Biocoat plates) and dried overnight at room temperature. […]

E13 chick DRG neurons = assay: cDRG neurite outgrowth assay; type: cell-based; conditions: substrate coated with GST fusion protein
Experimental: FIG. 2D. Differential effects of Amino-Nogo fragments on neurite outgrowth. Dissociated neurons from E13 chick DRGs were plated on 96 well dishes coated with lpmol protein per well and stained for neurofilament localization.
FIG. 2E. Neurite length per neuron were measured and plotted as percentage of PBS control with increasing concentration of dried protein for experiment described in […].
FIG. 6C. B24/32 peptide inhibits neurite outgrowth. Dissociated neurons from E13 chick DRG were plated onto 96 well dishes coated with 500 pmol of dried peptides as indicated and stained for neurofilament localization.
FIG. 6D. Neurite length per neuron was measured and plotted as percentage of PBS control for experiments as in (C).
(§1) It has been recognized that the Amino-Nogo-A protein inhibits non-neuronal cell spreading and axonal outgrowth when the protein is substrate bound (Chen, M. S., et al., Nature 403:434-439 (2000); Fournier, A. E., et al., Nature 409:341-346 (2001)). […] The later domain has been termed Δ20. To determine whether the NgR-interacting aa of Amino-Nogo-A described in Example 1 regulate cell spreading and axonal outgrowth, various fragments were expressed as GST fusion proteins and purified from E. coli. To generate GST fusion proteins, amino Nogo fragments were cloned in pGEX2T (Amersham Pharmacia). Native and soluble GST fusion proteins were expressed and purified as described (GrandPre, T., et al., Nature 403:439-444 (2000)). COS-7 binding assays were done as described (Fournier, A. E., et al., Nature 409:341-346 (2001)). Bound AP to COS-7 cells was measured using NIH image software. Fibroblast spreading and cDRG outgrowth assay were done as described (Fournier, A. E., et al., Nature 409:341-346 (2001)) with some modifications. Briefly, 50 μl of purified GST fusion protein or peptides diluted in PBS was pipetted into polylysine precoated 96 well plates (Becton Dickson Biocoat plates) and dried overnight at room temperature. For fibroblast spreading assay, subconfluent COS-7 cells were then plated for 1 hour in serum containing medium before fixation and staining with rho damine-phalloidin.
The same GST-Amino-Nogo proteins were tested for their ability to reduce neurite outgrowth from chick E13 DRG neurons. For cDRG outgrowth assay, dissociated E13 cDRG neurons were plated for 6 hours before fixation. […] Cell area, number of attached cells and neurite length were measured using the Imageexpress machine and software (Axon Instrument).
We reasoned that fusing the 24 aa segment of Amino-Nogo-A to NEP32 antagonist peptide might create a high affinity antagonist with a potency similar to the binding of AP-B4C-66 to NgR. […] Cell area, number of attached cells and neurite length were measured using the linageexpress machine and software (Axon Instrument).

NgR mutants = assay: AP fusion protein binding to COS-7 cells expressing NgR deletion mutants; conditions: COS-7 cells expressing NgR mutants; FIG. 3A
From the text: FIG. 3A. Binding of Amino-Nogo to NgR requires LRR repeats. Binding of AP or AP fused Nogo fragments to COS-7 cells expressing NgR mutants as indicated. AP-B and AP-B4: AP fusion protein of B or B4 fragment of Amino-Nogo. Surface expression of NgR mutants was detected using anti-Myc antibodies.
Similarly, the cysteine rich LRR-NT and LRR-CT capping domains are essential for Amino-Nogo-B4C binding. […] NgR is part of gene family that includes NgR2 and NgR3. […] By these measures, the NgR requirements for Nogo-66 and Amino-Nogo-B4C binding are indistinguishable.

NgR = target: T1, NgR; assay: AP fusion protein binding to NgR expressing COS-7 cells; conditions: AP fused Amino-Nogo fragments in conditioned media on NgR expressing COS-7 cells; 'No binding at' cells continue on the next line: AmNg A 150 nM; a.a. 1000-1018, a.a. 1005-1018, Amino of NgC 25 nM; a.a. 950-1004 50 nM; Amino of NgB 100 nM
From the text: Several alkaline phosphatase (AP) fusion proteins containing various Nogo-A segments derived from regions between the amino terminus and the first hydrophobic segment were examined to identify the mechanism of Amino-Nogo-A action. To generate additional AP fusion proteins, human amino Nogo fragments were amplified and ligated to the pcAP6 vector digested with restriction enzymes EcoRI and XhoI as described (Fournier, A. E., et al., Nature 409:341-346 (2001)). Plasmids were then transfected into HEK293T cells and conditioned media were collected after 7 days. None of these fragments bind with high affinity to non-transfected COS-7 cells. […] This binding is saturable with a Kd indistinguishable from that for AP-Nogo-66 association with NgR (Table I). To better define the region responsible for Amino-Nogo interaction with NgR, a range of truncation mutants of Amino-Nogo were examined as AP fusion proteins. […] In fact, the NgR-interacting segment of Amino-Nogo is fully accounted for in the extreme carboxyl 24 amino acids (aa 995-1018, Amino-Nogo-A-24) (Table I and FIG. 1D). […] We named this domain (aa 995-1013) as Amino-Nogo-A-19.
Binding Kds for AP fused Amino-Nogo fragments were measured by applying conditioned media containing AP fusion protein to NgR expressing COS-7 cells. Bound AP was stained and measured.
as §1

| Molecule | COS-7 cell attachment and spreading (COS-7 cells) | neurite outgrowth from chick E13 DRG neurons (E13 chick DRG neurons) | binding to NgR with deletion of the CT domain (NgR mutants) | binding to NgR with deletions of any two LRRs (NgR mutants) | requirement of LRR-NT and LRR-CT capping domains of NgR for binding (NgR mutants) | Kd (NgR) |
| --- | --- | --- | --- | --- | --- | --- |
| B1 | do not alter COS-7 morphology | not inhibitory for axonal growth | – | – | – | – |
| B2 | do not alter COS-7 morphology | not inhibitory for axonal growth | – | – | – | – |
| B3 | – | – | did not alter | eliminated binding | essential | 3.51 ± 3.36 nM |
